What all share (assay): fluorescence polarisation
For experiment [1], the target named is FITC-labelled SMN^26–51, wild type (human) (UniProt Q16637).
The target in experiment [2] is FITC-labelled SMN^26–51 D44A (human) (UniProt Q16637).
In experiment [3] the target is FITC-labelled SMN^26–51 Y43A (human) (UniProt Q16637).
Experiment [4] has as its target FITC-labelled SMN^26–51 A46N (human) (UniProt Q16637).
In experiment [5] the target is SMN^26–51 peptide containing phosphoserine at positions 28 and 31 (human) (UniProt Q16637).
In experiment [6] the target is FITC-labelled SMN^26–51 K41A (human) (UniProt Q16637).
Experiment [7] concerns the target FITC-labelled SMN^26–51 D36A (human) (UniProt Q16637).
Experiment [8] has as its target FITC-labelled SMN^26–51 W34A (human) (UniProt Q16637).
Experiment [9] has as its target FITC-labelled SMN^26–51 D44V (human) (UniProt Q16637).
In experiment [10] the target is FITC-labelled SMN^26–51 D35A (human) (UniProt Q16637).
Experiment [11] deals with FITC-labelled SMN^26–51 L39A (human) (UniProt Q16637).
In experiment [12] the target is FITC-labelled SMN^26–51, wild type (human) (UniProt Q16637). This is another data set of the same source.
Experiment [13] has the same target. The source holds these as a separate data set.
Experiment [14] has the same target. The source holds these as a separate data set.
Experiment [15] concerns the target FITC-labelled SMN^26–51 D44V (human) (UniProt Q16637). The source holds these as a separate data set.
For experiment [16], the target named is FITC-labelled SMN^26–51, wild type (human) (UniProt Q16637). The source holds these as a separate data set.
The target of experiment [17] is FITC-labelled SMN^26–51 D44V (human) (UniProt Q16637). This is another data set of the same source.
The target of experiment [18] is FITC-labelled SMN^26–51, wild type (human) (UniProt Q16637). This is another data set of the same source.

Read-outs that look alike come from different tables or passages of the source.

The term Kd denotes the equilibrium constant for the complex coming apart. Read a low Kd as higher affinity. The substance Gemin2 (12–280) (natural protein) displayed a Kd in [1] of 7 nM.

For Gemin2^95–280 (domain or fragment), the Kd came to 5.3 nM in experiment [2]; 510 nM in experiment [3]; 42 nM in experiment [4]; 4.2 nM in experiment [5]; 4.8 nM in experiment [6]; 8.3 nM in [7]. The Kd is 3.3 nM in [1]; 16 nM in experiment [8]; 8.4 nM in experiment [9]; 6.8 nM in [10]; 74 nM in experiment [11]; 2.4 nM in experiment [12]. The Kd in [13] is 5.2 nM; in experiment [14] it was 2.3 nM; in [15], 1.5 nM; in [16], 2.2 nM; in [17], 1800 nM; in [18], 180 nM.
